Here are results for 1 variant from IntAct's records for PubMed 18196517.

First the molecules themselves.
B1: Sorting nexin-20 (Homo sapiens), Q7Z614 (parent)
chain: MASPEHPGSPGCMGPITQCTARTQQEAPATGPDLPHPGPDGHLDTHSGLSSNSSMTTRELQQYWQNQKCRWKHVKLLFEIASARIEERKVSKFVVYQIIVIQTGSFDNNKAVLERRYSDFAKLQKALLKTFREEIEDVEFPRKHLTGNFAEEMICERRRALQEYLGLLYAIRCVRRSREFLDFLTRPELREAFGCLRAGQYPRALELLLRVLPLQEKLTAHCPAAAVPALCAVLLCHRDLDRPAEAFAAGERALQRLQAREGHRYYAPLLDAMVRLAYALGKDFVTLQERLEESQLRRPTPRGITLKELTVREYLH
partner: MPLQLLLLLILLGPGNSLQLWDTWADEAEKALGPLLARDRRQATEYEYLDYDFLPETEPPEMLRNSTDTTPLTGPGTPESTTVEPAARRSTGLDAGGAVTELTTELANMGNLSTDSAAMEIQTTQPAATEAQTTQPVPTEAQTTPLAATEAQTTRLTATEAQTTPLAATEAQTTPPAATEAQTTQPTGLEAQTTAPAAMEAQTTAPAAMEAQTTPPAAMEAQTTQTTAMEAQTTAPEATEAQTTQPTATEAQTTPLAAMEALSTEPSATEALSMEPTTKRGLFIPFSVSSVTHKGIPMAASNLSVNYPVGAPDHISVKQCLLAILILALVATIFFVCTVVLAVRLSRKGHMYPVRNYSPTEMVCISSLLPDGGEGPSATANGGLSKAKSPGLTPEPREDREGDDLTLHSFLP

Variants of B1 are the subject of the test. To be noted: with selpl_human SELPLG.
For MASPEHPGSPGCMGPITQCTARTQQEAPATGPDLPHPGPDGHLDTHSGLSSNSSMTTRELQQYWQNQKCRWKHVKLLFEIASARIEERKVSKFVVYQIIVIQTGSFDNNKAVLERQYSDFAKLQKALLKTFREEIEDVEFPRKHLTGNFAEEMICERRRALQEYLGLLYAIRCVRRSREFLDFLTRPELREAFGCLRAGQYPRALELLLRVLPLQEKLTAHCPAAAVPALCAVLLCHRDLDRPAEAFAAGERALQRLQAREGHRYYAPLLDAMVRLAYALGKDFVTLQERLEESQLRRPTPRGITLKELTVREYLH [R116Q], the “effect of a mutation on the interaction” value is on record as “disrupting interaction”.
